B1: TP53-binding protein 1 (Mus musculus), P70399-1 (parent)
chain: MPGEQMDPTGSQLDSDFSQQDTPCLIIEDSQPESQVLEEDAGSHFSVLSRHLPNLQMHKENPVLDIVSNPEQSAVEQGDSNSSFNEHLKEKKASDPVESSHLGTSGSISQVIERLPQPNRTSSALAVTVEAASLPEEEKEEEELEEEKEGVGANAPGADSLAAEDSASSQLGFGVLELSQSQDVEEHTVPYDVNQEHLQLVTTNSGSSPLSDVDASTAIKCEEQPTEDIAMIEQPSKDIPVTVQPGKGIHVVEEQNLPLVRSEDRPSSPQVSVAAVETKEQVPARELLEEGPQVQPSSEPEVSSTQEDLFDQSSKTASDGCSTPSREEGGCSPVSTPATTLQLLQLSGQKPLVQESLSTNSSDLVAPSPDAFRSTPFIVPSSPTEQGGRKDEPMDMSVIPVGGEPFQKLHDDEAMETEKPLLPSQPAVSPQASTPVSRSTPVFTPGSLPIPSQPEFSHDIFIPSPSLEEPSDDVKKGGGLHSSSLTVECSKTSESEPKNFTDDLGLSMTGDSCKLMLSTSEYSQSSKMESLGSPRTEEDRENTQIDDTEPLSPVSNSKLPADSENVLVTPSQDDQVEMSQNVDKAKEDETEDRGDCKGREDAVAEDVCIDLTCDSGSQAVPSPATRSEALSSVLDQEEAMDTKEHHPEEGFSGSEVEEVPETPCGSHREEPKEEPMESIPLHLSLTETQSEALCLQKEAPKEECPEAMEVETSVISIDSPQKLQVLDQELEHKDPDTWEEATSEDSSVVIVDVKEPSPRADVSCEPLEEVEKCSDSQSWEGVAPEEEPCAENRLDTPEEKRIECDGDSKAETTEKDAVTEDSPQPPLPSVRDEPVRPDQETQQPQVQEKESPVTVDAEVADDKQLGPEGACQQLEKAPACASQSFCESSSETPFHFTLPKEGDIIPPLTGATPPLIGHLKLEPKRHSTPIGISNYPESTIATSDVTSESMVEINDPLLGNEKGDSESAPEMDGKLSLKMKLVSPETEASEESLQFSLEKPTTAERKNGSTAIAEPVASLQKPVPVFGCIYEAQQEKEAQSEAPPSAPDRANLLHFPSAQEEDKERPDVTPKLRQSEQPVKPVGPVMDDAAPEDSASPVSQQRASQEQRASQEPFSPAEDVMETDLLEGLAANQDRPSKMLMDRPTQSNIGIQTVDHSLCAPETVSAATQTVKSVCEQGTSTAEQNSGKQDATVQTERGSGEKPASAPVDDTESLHSQGEEEFEMPQPPHGHVLHRHMRTIREVRTLVTRVITDVYYVDGTEVERKVTEETEEPIVECQECETEVSPSQTGGSSGDLGDISSFSSKASSSHHTSSGTSLSAIHSSGSSGRGAGPLKGKASGTEAADFALPSSRGGPGKLSPRKGISQTGAPVCEEDGDAGLGIRQGGKAPVTPRGRGRRGRPPSRTTGTRETVVSGPLGVEDISPSMSPDDKSFTRIMPRVPDSTKRTDASSSTLRRSDSPEIPFQAATGSSDGLDSSSSGNSFVGLRVVAKWSSNGYFYSGKITRDVGAGKYKLLFDDGYECDVLGKDILLCDPIPLDTEVTALSEDEYFSAGVVKGHRKESGELYYSIEKEGQRKWYKRMAVILSLEQGNRLREQYGLGPYEAVTPLTKAADISLDNLVEGKRKRRSNISSPVTPTAASSSSTTPTRKATESPRASTGVPSGKRKLPTSEEERSPAKRGRKSATVKPGTVGAAEFVSPCETGDNIGEPSVLEEPRGPLPLNKTLFLGYAFLLTMATTSDKLASRSKLLDGPTGSSEEEEEFLEIPPFNKQYTECQLRAGAGYILEDFNEAQCNTAYQCLLIADQHCRTRKYFLCLASGIPCVSHVWVHDSCHANQLQNYRNYLLPAGYSLEEQRILDWQPRENPFQNLKVLLVSDQQQNFLELWSEILMTGGAASVKQHHSSAHNKDIALGVFDVVVTDPSCPASVLKCAEALQLPVVSQEWVIQCLIVGERIGFKQHPKYKHDYVSH

Variants of: B1
Conditions: with plk1_human PLK1, P53350
Sequence of plk1_human PLK1, P53350 (P53350 whole entry): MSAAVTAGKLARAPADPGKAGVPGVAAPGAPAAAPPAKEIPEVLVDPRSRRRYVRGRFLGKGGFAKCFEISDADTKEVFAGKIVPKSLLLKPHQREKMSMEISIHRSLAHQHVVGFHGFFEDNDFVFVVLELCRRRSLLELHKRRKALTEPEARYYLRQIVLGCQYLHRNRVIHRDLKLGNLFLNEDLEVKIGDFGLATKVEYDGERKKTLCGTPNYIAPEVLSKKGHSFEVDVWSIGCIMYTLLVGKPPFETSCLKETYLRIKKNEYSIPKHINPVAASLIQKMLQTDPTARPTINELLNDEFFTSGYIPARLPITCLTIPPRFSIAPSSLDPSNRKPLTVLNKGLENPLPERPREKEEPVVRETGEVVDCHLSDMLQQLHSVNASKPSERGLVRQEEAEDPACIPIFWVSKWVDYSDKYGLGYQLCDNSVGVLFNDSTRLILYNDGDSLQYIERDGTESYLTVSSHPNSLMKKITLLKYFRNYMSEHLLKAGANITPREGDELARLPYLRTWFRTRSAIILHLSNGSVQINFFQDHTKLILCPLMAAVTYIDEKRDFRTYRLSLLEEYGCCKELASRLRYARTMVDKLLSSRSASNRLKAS

**Q.** Which “effect of a mutation on the interaction” value does the source give for S382A here?
**A.** disrupting interaction
